In the DeepSol protein solubility set:

Assay: soluble on expression in E. coli; label from the status in PepcDB or PDB records

Soluble on expression in E. coli, soluble:
MEQIGLIGYGSMADMIARQLLKHEQIKENELFIETRTKGERLRALMSDYPNVSADPLENWANTCQLILICVPPLHVIETMRRLYPYVNRNTHIVSIAAGVPLRLLEAETEAGISRVIPAITSEAEAGISLVVHSEALAAEKKERLNELLSVFSRVREIKESNLDVASNLTSSAPGFIAAIFEELALSAVRNSSLSKEEAFDFLIHSLYGTGKMLIEKNMSFEETLERVATKGGITGEGAEVIHASVPDVFDEVFERTLRKYELLTEQVGKQTLEHHHHHH
MSLSYLTEEKLTIVGAAGMIGSNMAQTAAMMRLTPNLCLYDPFAVGLEGVAEEIRHCGFEGLNLTFTSDIKEALTDAKYIVSSGGAPRKEGMTREDLLKGNAEIAAQLGKDIKSYCPDCKHVIIIFNPADITGLVTLIYSGLKPSQVTTLAGLDSTRLQSELAKHFGIKQSLVTNTRTYGGHGEQMAVFASTAKVNGTPLTDLIGTDKLTNEQWAELKQRVVKGGANIIKLRGRSSFQSPSYVSIEMIRAAMGGEAFRWPAGCYVNVPGFEHIMMAMETTITKDGVKHSDINQLGNEAERAALKESYSHLAKLRDEVIAMGIIPAIADWKTVNPNEGHHHHHH
MIFRQIHEEGLAQMSYLLGCAATGEALVVDPRRDVDVYLELAQSLGLRITAIAETHIHADYLSGARELARATGATLYLSDEGDENWKYKGLEGFPHVLLKDGDEFKVGNIRVRAVHTPGHTPEHLSFLVADGAVTDEPLLFLTGDFVFVGDVGRPDLLEEAAGIKGTAEPGARRMFRSLKEKFLTLPDHVQVWPGHGAGSACGKALGALPATTVGYERRHAWWAEYLERDDEEGFVKALLQGQPEAPTYFKEMKRLNRDGMAILGGLPHPGRLTPAQFERWLREGAILVDTRDKFAFAGGHIPGSINIPAGKNFSTWAGWLLPYDRPLVLLARPEEVEALTRALVRIGLDEVVGYIPGLEGYAQGELETVPQVTAKEAKELWEKGKAFVLDVRGRDEYLAGHIPGAQNIHAGRVLAHLDRLPKDRPLIVHCVGGDRSSTAISALLAHGFRNALNLTGGIKAWREAGFPVVQGEELVQA
MSLDLQEKVRVAAEAVKHADAIVMTAGAGMGVDSGLPDFRGDTGFWKAYPPYQKLGITFVGAANPDHFERDPSFGWGFYGHRTNLYRATVPHAGFDILREWVQRYGLDYFVVTSNVDGQFQKAGFADDRILEVHGSIHHLQCTTPCTMAIWENRETIPVDEATMRAGHVPRCIHCGAVARPNILMFGDYGWVSDRSARQQRNFDEFLADTRGGRLVVVEMGAGTAIPTIRYLTEELGSRSEALAVRINPREPQIRAPHLSLPCGAREGVAAINAVLAEESEGHHHHHH
MEKNMKIELITIKEFIEQAECYFRNYMDGLRRNAPDDFYYFLNNKYNMNDIMESIIKKTRYHFYDDTEEGKRNRIYGEVNHCKVKQHLRQLWIVYKCVYR
MSKKVAILVDGDFFIRCYKSHLKKQPEDLNPKKLAHHIHTYCLKHINKKNDEELYRIFFYDCKPLKKKAHYPYTQKALDLSKSPTYREREELHEHLISKPCLALRLGYLDEKNARWVIRDQEKEKKLFNRRISIEEFQNDDFIYHAKQKGVDIKIGLDIATLALKKLVQKIVLISGDSDFVPASKLARVEGIIFTLDPMGNHIREDLKEHIDYLTTRLPQFKQQ

Soluble on expression in E. coli, not soluble:
MGSDKIHHHHHHMETQQLLSIYPQATISPRPSVAKNMVCVAIDAGKYICIDTTNLSNRELSLLELLTHTKSNATTGDAWSEFLTGRHTTAPQTTAKKLQILQFRVHFTERHADRSQWLSAIADTFEHVLHRAFITADSGYLLLTESLTDTSADLASLLALIDNDFYTNTHLFIGSTHRSSQDLPTTFALEQQLFSQNQQDTIVTLSSSLLPFLVNQHQPELQALRNSLSLDSDNKQLIRALYHTQGNVRQAASKLFLHRNTLLYRIEKFERCNGLNLKNMDDLVYCYLLTLGQVINQVEK
MDWKITIFTYNLAMKASDSEAVHNMLNGMIDDHTHLVAIGLQEVAHSETIGGAVLTWATTIASWMNTNGRMVLLAKTFQATNQVLIFGRKQLIGQIKRIDYRFQRNTMGGLTGHKGSIGVRLQLASPYSIVFVDSHFIHGPENYGKRVEQYHTNRNCSFPEDKSVRAAFWFGDFNFRVEEDVNTVIRKIKNGTHLELLDTREQLKRALVERDAFIGFHEQPVTFEPTYRVTVGTTEQDGKRVPSWTDRILYKGDGITGLSYTNNKKAVASDHLPVVAMFRVTAPAAPKPQWEVIFEHLPTWYTSIPLVGRFQVNELYYKENGSYRDWIGVFPSSINDCTTATNWIYAATCFEQVIEGSKFLACEFNNIPAGNYRLGYFSCHLHCLVGLSKVFQIVEQP
MGSDKIHHHHHHMKLRYIFYGLTSGLLFGLSSCSLNYDPIDTYSDVTEGVTDTGTKVVFKDKAAVESHLTTIYNQMRDRQEHWYVDLLLISDSHADNAYAGTTGAEVLPFENNSIEGSNSVLERDWNRYLEDVARANKLICNIDLVTDNSLTTAERAQYKAEAMIFRAMVMFDMVRLWGDFPVITTVADDITSENIEDVYEQYFPAQNTELEAYQQIEKDLLAAIQHAPDNTAGNKTLFTKSVARTLLAKIYAEKPLRDYSKVIRYCDEVKADGFELVKDFSDLFGMNAAGTDAKARNTKESILEAQFTPGSGNWCTWMFGRDLVNWNNNFTWAKWVTPSRDLINAFKKEGDQIRFQESVVYYDCNWSNYYPSDNYPFMYKCRSANSSIIKYRYADVLLLKAEALIMQDTPDLEAAAKIIDEVRERAGLGELSSSVRKDRDAMITALLNERRLELAFEGQRWFDLVRLDKVEEVMNAVYAKDSGRKSQVYAFDKNSYRLPIPQSVIDANDKIEQNPGY
MGSDKIHHHHHHMGQRIPVTLGNIAPLSLRPFQPGRIALVCEGGGQRGIFTAGVLDEFMRAQFNPFDLYLGTSAGAQNLSAFICNQPGYARKVIMRYTTKREFFDPLRFVRGGNLIDLDWLVEATASQMPLQMDTAARLFDSGKSFYMCACRQDDYAPNYFLPTKQNWLDVIRASSAIPGFYRSGVSLEGINYLDGGISDAIPVKEAARQGAKTLVVIRTVPSQMYYTPQWFKRMERWLGDSSLQPLVNLVQHHETSYRDIQQFIEKPPGKLRISEIYPPKPLHSIALGSRIPALREDYKLGRLCGRYFLATVGKLLTEKAPLTRHLVPVVTPESIVIPPAPVANDTLVAEVSDAPQANDPTFNNEDLA
MHVGIVAQRGNERATSLAGEIREQLRALEVTVWVDTATAEALACAGECGRDTTAFTDCDLVVSIGGDGTFLFAARGAGATPILGVNLGEVGFLNAVAPADAVEAVREEVNRYRETGAVRCREVPRVVAAGDGWASTPALNEVAIQGEQRGHGHGVAVDVRVDGSQYEATRADGVLVATPTGSTAYNLSEGGPLVQPSVDALVVTEMCGADALPPLVTGLDSEIRIRVETLDDGGEGRVVVASDGGRLTRVDPPVEMTVTAADEPARVAGPAADFFEALSKLELEHHHHHH
MPKVEIAPSEIKIPDNVLKAKLGFGGAEEIPEEFRKTVNRAYEELLDAAKPVVLWRDFEVDGSLSFDDMRLTGELATKHLSGSKIITVFLATLGKKVDEKIEEYFRKGEDLLAFFIDGIASEMVEYALRKVDAELRMKRSNLEGSFRISPGYGDLPLSLNKKIAEIFKEEVDVNVIEDSYVLVPRKTITAFVGWREKNEKQT
MGSDKIHHHHHHMYSFVARQPILNQHRQTVAYELLFRMDITNKFPDVSPEFATAQLISDQFLTNPLARSVVEQPYYINFPHQMLINGQAEVLPQEKVVIEILENAAPDNDLFAAVKKLKRKGFKIALDDFSMDSEWDRFLPYIDVIKFDLTLSTFGDIENFIKRTKQRKLIYLAEKVETHEQYMQSKKLGISLFQGYFFSRPEMIKSKKLVNKSSNTIRLLREVNKPEINYAAIEELVCADLSLYYKLMRHITNIKYNTRFGITATSMSFRSMAMLLGQRELKRFVSLISITNSNENKPSELYRTSLIRARFFELLYASFNVKEDTTEAFLCGLLSLLDAVLDSPMPLLLSQIALSEKINQSLLENTGELAVYLTLIAKYEQQEWEELERLLIQLGIDEENFFTMIMEATQWADEIL
MWEPSKRLKPVPILPELKEIGEQLQAQREQAMIEWAQTGYVKKLKARLVGRIIHGLGAGHIRETSLTIHPVYGLPYIPASSVKGLVRHWFIEAYCEGEEKQLNEHEIGREIFGTQGNKGIVQFHDIFLIESLQLTGDVLAVHMKEYYEGNRAATDDQKPVPVSFWTVMATEVDIYLTANRSAPQNDEETVRLLEAAALWTQQALTEWGIGSKTSSGYGRFAEVYDVTEMEFLPIVQKEQVRLEQQKKEREMLEQ
MGSDKIHHHHHHMKFVVSSNALLKQLTAINGVITTNPVVPILENFLFEIGDGMLVVYASDLQTSMITEIAVEAKAKGSIAVPAKILLDTLKNLPEQPVTFTIDPETYSIEISSDNGRYKLSGENATDFPKVPGVKNGYSVDISTEILNRAISSTIFAASNDELKPAMTGVYVSLTESNATFVATDGHRLIRYRRTDIVSEMANTLIIPKKALNLLKASLPSENTNVKIEYNASNAFFSFNNIKMICRLIDERFPDYENAIPVDNPNVLTITRTDMMNSLKRISIYANKTTHQVRLKLAGSELQISAEDLDFSNEANERLACEFEGQDMEIGFNAKFLVEMLSNLDSPQISMHFSAPNRAGIITPADKDEHEDVLMLVMPVMLNSYA
MGSDKIHHHHHHMPDLTTAPDAEILMAQPRGFCAGVDRAIEIVERALTRFGAPIYVRHEIVHNAYVVADLRRKGAVFVRELDEVPAGATVIFSAHGVSKDVRAEAASRGLNVFDATCPLVTKVHVEVGKMRAEGCEIVMIGHRGHPEVEGTMGQAEGGMLLVESVADVAGLVVADPARLAYVTQTTLSVDETLEIVAALKARFPLIREPKKQDICYATQNRQDAVKFMAPQVDVVIVVGSPNSSNSNRLRELAARLGVPAYMVDAPDQVHPEWVAGKRRIGLTAGASAPEELAQSIVARLRELGAGHVRALAGIEENMAFPLPRGLQAAATVGVTA
MEARNAEGLESCIEKIQEVKLSSFAELKAFRERKVALITGITGQDGSYLAELLLSKGYKVHGIIRRSSSFNTARIEHLYGNPVTHNGSASFSLHYGDMTDSSCLIKLISTIEPTEIYHLAAQSHVKVSFDLPEYTAEVDAVGTLRLLDAIHACRLTEKVRFYQASTSELYGKVQEIPQSELTPFYPRSPYAVAKMYGYWIVVNYREAYKMFACNGILFNHESPRRGETFVTRKITRSVAKISLRQQEHIELGNLSALRDWGHAKEYVEAMWRILQQDTPDDFVIATGKQFSVREFCNLAFAEIGEQLVWEGEGVDEVGKNQDGVVRVKVSPKYYRPTEVETLLGNPAKARKTLGWEPKITVPELVKEMVASDIALMEADPMA
MGSDKIHHHHHHMGQGTDSMSKRGRVYIIGAGPGDPGLMTVKGTKCLAEADVVIYDHLINPGILHHARETARLVYAGKEGGKHTLSQEEINARLVSEAQQGHVVARLKGGDPFIFGRGGEEAEVLAREGIPFEIVPGVTSAIAVASYAGIPLTHRRHTATLAFVTGHEDPLKGQSEIDWKALAGIGTLVFLMGVRNLSRIAAGLIAQGKKPETPAALIRWGTTANQETLVGTLENIADLAEAAGFAPPAILVVGGVVGLRKELNWFETRPLFGKGIVITRPESQAESLAALLEDAGARVISFPTIQIVAPESWEGLDSAIRRLEDYAWLIFTSANGVRFFLERLYVTGKDVRDLKGIRLCTIGPATAAALENRGLRVDLVPETYLSEGVVAAFERVAISGQRILLPRAEKARDVIPEGLTRQGAVVDVVSAYRTVNSGRDRSELVELIAQRRVDVLTFTSPSTVTNFLEIMGPDFLPLPAGIRVACIGPVTAAAAEKAGLPVDILQEIYTIPGLVESLKVFLAKDKPH
